Experimental data: the supplement of paper PMC10567573
± gives the standard deviation.

Experiment: protein stability index of a GFP-peptide fusion (GPS, HEK-293T) (PSI 1-6); higher = more stable
Conditions: c terminus: a fixed tail appended
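Also: 24-mer peptide tiles fused after GFP, lentivirally expressed, FACS-sorted into six equal bins by GFP/DsRed ratio, decoded by Illumina sequencing, PSI is the read-weighted mean bin number.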

Sequence | protein stability index (treatment: DMSO) | protein stability index (treatment: MLN4924 1 uM, 8 h)
EGPALVEIDRSVENTLLNSQMVST [MIA2] | 4.54 ± 0.26 | 4.63 ± 0.22
EGSRKSSRVKGSAPEIDPSSDGSN [KMT2E] | 5.36 ± 0.17 | 5.21 ± 0.18
EHKSLESLADGGSASPIKDQPVMA [FANCE] | 5.43 ± 0.27 | 5.32 ± 0.2
EIAQYLLEKGADVNRKSVKGNTAL [FEM1C] | 2.58 ± 0.35 | 2.64 ± 0.3
EIDTPDKFGRTCLHAAAAGGNVEC [ANKRD44] | 4.24 ± 0.16 | 4.37 ± 0.23
EILGCPLPDPNNYYHRRNEMTTTD [CPXM2] | 3.24 ± 0.21 | 3.54 ± 0.56
EILLHPWFESVLEPGYIDSEIGTS [TRIB1] | 2.44 ± 0.29 | 2.56 ± 0.43
EKKKGKAKKKRLTKADIGTPSNFQ [WASL] | 4.62 ± 0.099 | 4.63 ± 0.062
EKKRKEEEERRRREEEERERLQKE [ACBD3] | 5.45 ± 0.36 | 5.49 ± 0.25
EKLITWLNKELNENQLVRKQDVLG [SASS6] | 2.12 ± 0.44 | 3.1 ± 0.26
EKSLDQLKSISAEEILTLFCGAPP [PHTF1] | 3.02 ± 0.21 | 3.3 ± 0.15
EKVNEGKYRSYEEFKADAQLLLHN [ZMYND11] | 4.1 ± 0.13 | 3.79 ± 0.28
ELDELQAAFEEFDTDRDGYISHRE [CABP4] | 5.26 ± 0.25 | 5.32 ± 0.15
ELIFSARVLDGKEAKAVGLISHVL [AUH] | 2.58 ± 0.92 | 2.18 ± 0.25
ELLVAHAYTRYLGDLSGGQVLKKI [HMOX1] | 2.23 ± 0.86 | 2.32 ± 0.3
ELSGAPRCHTVPCAGSTALQEPGE [PXN] | 4.9 ± 0.28 | 5.05 ± 0.32
EMKLQKNFLTQRENTIAGANHTHT [C10orf62] | 3.78 ± 0.44 | 3.65 ± 0.4
ENLIRERSQQQEPLLCPSYQSYFK [KRT33B] | 3.39 ± 0.26 | 3.59 ± 0.59
EQKVLSRLVESLSTQIRALTEQQE [RASAL3] | 2.65 ± 0.046 | 2.76 ± 0.19
EQQTMDNLEKQLICPICLEMFTKP [TRIM55] | 3.77 ± 0.38 | 4.14 ± 0.38
ERIQELEDLLAKEKDNSRRMLTDK [LMNB1] | 4.85 ± 0.29 | 4.91 ± 0.34
ERKNAEMYKLSSEQFHEAASKMES [CHCHD6] | 4.83 ± 0.27 | 5.08 ± 0.16
ERLTAPEILLHPWFESVLEPGYID [TRIB1] | 3.26 ± 0.21 | 3.3 ± 0.3

Sequence | protein stability index (treatment: DMSO) | protein stability index (treatment: MLN4924 1 uM, 8 h)
ERPQDRDTPVQNKRRRSVTPPEEQ [CDC25B] | 5.34 ± 0.18 | 5.32 ± 0.23
ERQGNGQQAMSLAILRVIRLVRVF [KCNA3] | 2.3 ± 0.13 | 2.56 ± 0.59
ERSLVLDRLASNVAKRKSSMPQKF [IKZF1] | 3.6 ± 0.23 | 3.84 ± 0.29
ESHATLTLAQAHFNNGEYAEAEAL [TTC32] | 5.19 ± 0.2 | 5.04 ± 0.15
ESLPHRLSCLGQQQQEPPLAMGTV [PLAGL1] | 3.92 ± 0.17 | 4.04 ± 0.26
ESPSFLSLRKGASLSNGQGSRVLH [NCK2] | 3.83 ± 0.27 | 3.92 ± 0.16
ESRACLERIQELEDLLAKEKDNSR [LMNB1] | 5.04 ± 0.46 | 5.15 ± 0.27
ESSDLQMDVMPGEGDLPQMEVGSG [EID1] | 5.42 ± 0.15 | 5.21 ± 0.3
ESYTKMCDPGMTAFEPEALGNLVE [CAMK2A] | 4.1 ± 0.31 | 4.16 ± 0.33
ETELALVKESGERKVTDSISKSLE [DLC1] | 5.56 ± 0.35 | 5.13 ± 0.44
ETELAMRQSVENDIHGLRKVIDDT [KRT18] | 5.17 ± 0.28 | 5.2 ± 0.18
ETFAFQAEIAQLMSLIINTFYSNK [HSP90AB1] | 2.84 ± 0.66 | 2.63 ± 0.54
ETVSPLPSSMDLLIQDSPDSSTSP [NANOGP8] | 5.45 ± 0.37 | 5.45 ± 0.25
EVDFFQRYFIADLPHLQDSFVDKL [INTS4] | 2.23 ± 0.43 | 2.65 ± 0.25
EVEEVENVQTEFPGEDENPEKASE [TRIM55] | 5.57 ± 0.39 | 5.47 ± 0.52
EVFYYSCEYNFVSPSKSFWTRITC [CFHR2] | 3.39 ± 0.15 | 2.31 ± 0.27
EVGMVKCGSRRERCGYRLVRRQRS [ESR2] | 3.19 ± 0.35 | 3.27 ± 0.43
EVHERNDGIDPFPLLMNRQRVPKV [EFHC1] | 3.67 ± 0.31 | 3.64 ± 0.3
EVKIRDWHLKQSPASPERDYSPYY [KRT13] | 3.34 ± 0.38 | 3.35 ± 0.47
EVVNRKFGNRIKVLRSRIRFIHLV [POMT2] | 2.56 ± 0.22 | 2.43 ± 0.43
EWELLDPTQKALYNDVMQENYETV [ZNF75A] | 4.77 ± 0.086 | 4.98 ± 0.19
EYTCDVEKRSRGQVLFDKVCEHLN [EPB41L3] | 2.16 ± 0.32 | 2.05 ± 0.61
FAVLHWKPPQNPVDTYDVQVTAPG [TNXB] | 2.76 ± 0.25 | 2.68 ± 0.46

Sequence | protein stability index (treatment: DMSO) | protein stability index (treatment: MLN4924 1 uM, 8 h)
FDALDDYEHHYHTLHGNVCSFCKR [ZNF511] | 3.83 ± 0.33 | 4.19 ± 0.41
FDVGGQRSERKKWIHCFEGVTAII [GNAI1] | 2.29 ± 0.44 | 1.95 ± 0.37
FELQRLEFDLSPLNLDIGQVYKET [AASDHPPT] | 2.42 ± 0.092 | 2.29 ± 0.62
FESFPAGSTLIFYKYCDHENAAFK [TOR1AIP2] | 2.17 ± 0.14 | 2.17 ± 0.23
FFSEIISSVSDVKFSHSGRYMLTR [PPP2R2C] | 2.08 ± 0.48 | 2.06 ± 0.22
FIEERRQGLEQFINKIAGHPLAQN [SNX12] | 2.73 ± 0.17 | 2.94 ± 0.47
FKDLNESLNALEDQDLDALMADLV [APBB1IP] | 3.19 ± 0.26 | 3.52 ± 0.26
FLCGRALTSDLYAPMVAGALARLG [SLC25A39] | 2.85 ± 0.26 | 3.02 ± 0.64
FLLRNSQRTVGQLMELCRLYHRAD [EDARADD] | 2.12 ± 0.24 | 2.23 ± 0.25
FLVRLLMAMAVMLYYSNFVLALEE [MFSD9] | 2.85 ± 0.14 | 3.02 ± 0.21
FNKPSRVPAPEAFRDPIWSTWALY [MYORG] | 2.23 ± 0.46 | 2.25 ± 0.47
FNSTYNARVKAFNKTGVSPYSKTL [TRIM9] | 2.55 ± 0.41 | 2.85 ± 0.38
FPNIASATKFKQLYRSRMNSLEMT [HMOX1] | 2.37 ± 0.16 | 2.62 ± 0.23
FQASNPYLPTRGGTTMASGGRFRC [TRIM55] | 2.54 ± 0.65 | 3.14 ± 0.7
FQEAMTHLQHKLICTRKPEEIRGG [TENT5D] | 3.05 ± 0.17 | 3.29 ± 0.41
FQQPAPEYHQPQAPANVAKIQLRL [LOXL2] | 2.81 ± 0.23 | 3.08 ± 0.28
FRTDPEAKVKLVFVEDQAVVETVF [ZSWIM9] | 2.46 ± 0.38 | 2.5 ± 0.32
FSHEILRDEESFFGERRIPRGRRI [ALKBH7] | 3.34 ± 0.4 | 3.84 ± 0.4
FSKSKELHPDRDPGNPSLHSRFVE [DNAJC4] | 3.91 ± 0.25 | 4.22 ± 0.12
FSLLEELKEGMLMKIKQDRASRTY [FSD1] | 2.63 ± 0.42 | 2.66 ± 0.14
FSSSSQEAFAASAVGSGERRGGGP [ZBTB22] | 3.66 ± 0.32 | 4.03 ± 0.34
FTFLRPLSVQQPTALALEPDAIRS [PCDHGC5] | 2.89 ± 0.3 | 3.03 ± 0.31
FTGNFFYNYMMGIEFNPRIGKWFD [DHCR7] | 2.59 ± 0.57 | 2.21 ± 0.43

Sequence | protein stability index (treatment: DMSO) | protein stability index (treatment: MLN4924 1 uM, 8 h)
FTLGDCDVIQALDLSVPLMDVGET [FKBP8] | 3.53 ± 0.093 | 3.54 ± 0.24
FVEYCDVNNDKSISVQELMGCLGV [SMOC2] | 2.39 ± 0.86 | 2.46 ± 0.38
FVLAEDGRRCKKCTEGPIDLVFVI [MATN2] | 3.06 ± 0.44 | 2.5 ± 0.31
FVRLFVDENLDRMVPISKQPKEKI [NOL4L] | 2.41 ± 0.098 | 2.65 ± 0.12
FWNIKQMWDTKTLGLRQHHCRKCG [WDFY1] | 2.64 ± 0.25 | 2.86 ± 0.49
FWRDWEDYAHGFGNISGEFWLGNE [TNXB] | 2.78 ± 0.9 | 2.46 ± 0.51
GAASLPSELIVHIFSFLPAPDRLR [FBXO33] | 2.6 ± 0.74 | 2.74 ± 0.39
GAAVVRPPGHHAEQDAACGFCFFN [HDAC6] | 3.14 ± 0.36 | 3.26 ± 0.25
GAGAVSRTCTAPLDRLKVLMQVHA [SLC25A25] | 2.32 ± 0.48 | 2.41 ± 0.14
GALEALELSPPLSPASHVDVDLTI [FOXJ1] | 3.17 ± 0.23 | 3.43 ± 0.36
GASLRLAVEDGLQQFKQYSRHVTT [M1AP] | 3.06 ± 0.15 | 3.19 ± 0.43
GASVRGLHPVQKVILNYPSPWDQE [TRAF3IP2] | 3.79 ± 0.33 | 4.1 ± 0.36
GATAASETLSGHGPLAQPLTLQVL [ADAMTS4] | 3.28 ± 0.29 | 3.19 ± 0.36
GCDPLVKPVGRQACDLQPCPTEPP [ADAMTSL2] | 4.2 ± 0.049 | 4.54 ± 1.2
GCFLLILGQIVLLPAEARERSRGR [MATN2] | 1.97 ± 0.083 | 2.31 ± 0.48
GCLENMPEADCIPKEQLSTSFQWV [PLK2] | 3.57 ± 0.2 | 3.45 ± 0.36
GDIQELYDTTLALGHAAAFSDDCD [GLT8D2] | 5.24 ± 0.12 | 5.23 ± 0.14
GDLIEITDAKKREALYAQDPSTGC [KMT5A] | 5 ± 0.24 | 4.86 ± 0.33
GEPGAAAPAMYDDESAIDFSAYID [CEBPD] | 5.28 ± 0.21 | 5.08 ± 0.29
GEQPEPGEAAAGGAAEEARRLEQR [ACBD3] | 5.53 ± 0.34 | 5.44 ± 0.24
